Source: patent US9273320B2, “Method of producing a sweet protein” (NOVOZYMES A/S, priority 2009, dated 2016)

B1: brazzein: Sweet protein of Pentadiplandra brazzeana Baillon or a recombinant form; tested batch secreted from Aspergillus oryzae (SEQ ID NO: 2) (protein)
chain: MQFTTILSIGITVFGLANTGAFAAPQPVPEAYAVSDPEAHPDDFAGMDANQLQKREDKCKKVYENYPVSKCQLANQCNYDCKLDKHARSGECFYDEKRNLQCICDYCEY

Legend:
[1] = Lamphear et al. 2005; cited from earlier work
[2] = background statement; cited from earlier work
[3] = tested on: test taste panel of three persons; test: Sucrose replacement in yoghurt drink, sweetness in 23% Cheasy A38; format: in vivo, human
Experimental: A test taste panel of three persons was made to evaluate brazzein sweetness in yoghurt drink. The yoghurt product Cheasy A38 (Arla Foods), which contains 0.1% milk fat, 4.3% milk protein, was diluted to a final conc. of 1% milk protein, with sucrose or a solution of brazzein produced in A. oryzae. […] Thus, at the present condition in 23% Cheasy A38, the brazzein batch is 930 times sweeter than sucrose on weight basis.
Furthermore, the sweetness of brazzein and sucrose were additive as 6% sucrose+75 mg/l brazzein, taste like 12.7%±0.6% (SD) sucrose in 23% Cheasy A38.

[4] = background statement; cited from earlier work; remark: listed apart in the source
[5] = tested on: taste panel of three persons; test: pH profile of the sweet taste of brazzein compared to sucrose, in 5 g/l whey protein; format: in vivo, human; conditions: 75 mg/l brazzein
Experimental: A taste panel of three persons estimated the pH profile of the sweet taste of brazzein compared to sucrose. 5 g/l whey protein (Lacprodan DI-9224, Arla Foods Ingredients) with 0%, 2%, 4%, 6%, 8%, 10%, 12%, 14% and 16% sucrose or 75 mg/l brazzein was adjusted with H3PO4, Na2HPO4 or NaOH to a final pH of […], 4.0, 5.0, 7.0 and 9.0.

[6] = tested on: test taste panel of six persons; test: Sensory evaluation of the sweetness of brazzein compared to sucrose, in 20% skim milk; format: in vivo, human; conditions: 50 mg/l brazzein in 20% skim milk
Description: Sweet protein: The term “sweet protein” as used herein refers to a protein having an intense sweet taste which is suitable for sweetening of food, beverage and/or medication products for human consumption. On weight basis, a sweet protein according to the present invention may be at least 100, preferably at least 200, more preferably at least 500, and even more preferably at least 1,000, times sweeter than sucrose, when compared to a 2% solution of sucrose. For purposes of the present invention, comparison of sweetness may be determined by testing human perception of sweetness of the protein against known controls using varied concentrations of the protein being diluted in water or in an aqueous solution which avoid adsorption on surfaces, such as 20% skim milk, e.g., as described in Example 3 of the present application. A test taste panel of six persons was used to evaluate the brazzein sweetness compared to sucrose. The brazzein batch from Example 2 was diluted 30 fold to a final conc. of 50 mg/l with 20% skim milk in order to avoid adsorption on surfaces. The sweetness was estimated using a standard of 0%, 0.68%, 1.37%, 2.74%, 5.48%, 11.0%, 21.9% (w/v) sucrose diluted in 20% (v/v) skim milk. The sweetness of this 50 mg/l brazzein dilution corresponded to an average sweetness of 2.57% (w/v) sucrose±0.55% sucrose (SD). Thus, the brazzein batch is 510 times sweeter than sucrose on weight basis at the present condition. The sweet taste delay of the brazzein was estimated to be 1.5 sec±1.2 sec (SD).

Molecule | sweetness relative to the form having an N-terminal pyroglutamate [1] | heat stability [2] | times sweeter than sucrose on weight basis ([3]; 75 mg/l brazzein in 23% Cheasy A38) | sweetness corresponding to sucrose ([3]; 75 mg/l brazzein in 23% Cheasy A38, SD 1%) | sweetness of brazzein plus sucrose, tastes like sucrose ([3]; 6% sucrose + 75 mg/l brazzein in 23% Cheasy A38, SD 0.6%) | sweet-taste delay sensation ([3]; in the presence of 6% sucrose, 23% Cheasy A38) | solubility in water [4] | sucrose equivalent sweet taste ([5]; pH 2.0) | sucrose equivalent sweet taste ([5]; pH 3.0) | sucrose equivalent sweet taste ([5]; pH 4.0) | sucrose equivalent sweet taste ([5]; pH 5.0) | sucrose equivalent sweet taste ([5]; pH 7.0) | sucrose equivalent sweet taste ([5]; pH 9.0) | times sweeter than sucrose on weight basis [6] | sweet taste delay ([6]; SD 1.2 sec) | average sweetness corresponding to sucrose ([6]; panel of six, SD 0.55% sucrose)
53-amino acid form: Natural brazzein form lacking the N-terminal glutamine or pyroglutamate; amino acids 2 to 54 of SEQ ID NO: 2 (QFTTILSIGITVFGLANTGAFAAPQPVPEAYAVSDPEAHPDDFAGMDANQLQK) | twice as sweet | – | – | – | – | – | – | – | – | – | – | – | – | – | – | –
B1 | – | can withstand heat | 930 times | 7 % sucrose | 12.7 % sucrose | almost removed | > 50 mg/mL | 6.0 % sucrose | 6.0 % sucrose | 4.3 % sucrose | 6.3 % sucrose | 5.0 % sucrose | 2.7 % sucrose | 510 times | 1.5 s | 2.57 % (w/v) sucrose
